Measured values published in patent US20160151452A1.

Key:
[1] = target: EphB2-Fc; test: SPR, 100 nM analyte over immobilised EphB2-Fc
[2] = target: EphB2-Fc; test: SPR competition on immobilised EphB2-Fc; competitor ephrinB2-Fc 246 nM
[3] = target: EphB2-Fc; test: SPR competition on immobilised EphB2-Fc; competitor ephrinB2-Fc 246 nM preincubated with 0-1020 nM GST-Azu 88-113
[4] = target: EphB2 transiently expressed in DU145 cells; test: cell-based or functional assay
[5] = target: EphB2-Fc; test: SPR, azurin immobilised on CM5 chip, 100 nM Eph-Fc injected
[6] = target: EphA6-Fc; test: as above
[7] = target: EphB2-Fc; test: SPR titration (0.05-100 nM) on immobilised EphB2-Fc, Langmuir 1:1 fit
[8] = target: EphB2-Fc; test: SPR competition on immobilised EphB2-Fc; competitor ephrinB2-Fc 246 nM preincubated with 0-1020 nM azurin
[9] = target: EphB2-Fc; test: SPR titration on immobilised EphB2-Fc, Langmuir 1:1 fit

Sequence of GST-Azu 88-113 (P08515 1-218, tags or fused parts left off): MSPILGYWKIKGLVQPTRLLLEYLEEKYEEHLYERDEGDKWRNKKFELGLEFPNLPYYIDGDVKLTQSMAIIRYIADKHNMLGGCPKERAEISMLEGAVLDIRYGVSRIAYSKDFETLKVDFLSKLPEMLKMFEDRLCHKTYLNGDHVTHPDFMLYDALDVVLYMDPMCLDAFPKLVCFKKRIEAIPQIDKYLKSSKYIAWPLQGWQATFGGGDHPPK
Sequence of ephrinB2-Fc (Fc fusion) (P52800 29-232): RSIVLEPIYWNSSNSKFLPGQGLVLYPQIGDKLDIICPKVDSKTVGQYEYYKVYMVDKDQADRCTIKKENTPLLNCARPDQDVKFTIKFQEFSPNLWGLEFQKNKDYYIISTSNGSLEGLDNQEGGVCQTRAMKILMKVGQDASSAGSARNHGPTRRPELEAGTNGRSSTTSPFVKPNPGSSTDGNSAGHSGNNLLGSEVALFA
Sequence of EphB2-Fc (P54763 19-543): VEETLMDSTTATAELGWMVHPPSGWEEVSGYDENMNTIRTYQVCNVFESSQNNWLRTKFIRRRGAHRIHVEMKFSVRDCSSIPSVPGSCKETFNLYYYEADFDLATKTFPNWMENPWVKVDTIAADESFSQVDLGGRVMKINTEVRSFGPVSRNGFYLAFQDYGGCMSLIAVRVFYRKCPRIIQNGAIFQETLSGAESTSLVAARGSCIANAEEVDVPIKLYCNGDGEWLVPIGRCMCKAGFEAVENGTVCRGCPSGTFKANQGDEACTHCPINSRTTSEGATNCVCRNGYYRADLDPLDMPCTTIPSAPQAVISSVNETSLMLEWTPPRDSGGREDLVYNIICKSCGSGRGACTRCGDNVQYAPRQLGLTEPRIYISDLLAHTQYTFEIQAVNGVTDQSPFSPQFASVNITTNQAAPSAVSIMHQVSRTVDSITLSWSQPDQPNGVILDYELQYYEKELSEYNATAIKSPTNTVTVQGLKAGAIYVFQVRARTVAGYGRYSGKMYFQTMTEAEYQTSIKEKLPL
Sequence of azurin from Pseudomonas aeruginosa (P00282 21-148 limits assumed): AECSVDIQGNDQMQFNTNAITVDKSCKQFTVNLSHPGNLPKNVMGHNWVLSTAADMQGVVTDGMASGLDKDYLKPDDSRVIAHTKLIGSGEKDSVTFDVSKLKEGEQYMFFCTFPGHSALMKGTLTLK
Sequence of glutathione S-transferase (GST) (P08515 whole entry): as the sequence (P08515 1-218, tags or fused parts left off) above
Sequence of GST-Azu 36-89 (P08515 1-218, tags or fused parts left off): as above
Sequence of EphA6-Fc (Q9UF33 whole entry): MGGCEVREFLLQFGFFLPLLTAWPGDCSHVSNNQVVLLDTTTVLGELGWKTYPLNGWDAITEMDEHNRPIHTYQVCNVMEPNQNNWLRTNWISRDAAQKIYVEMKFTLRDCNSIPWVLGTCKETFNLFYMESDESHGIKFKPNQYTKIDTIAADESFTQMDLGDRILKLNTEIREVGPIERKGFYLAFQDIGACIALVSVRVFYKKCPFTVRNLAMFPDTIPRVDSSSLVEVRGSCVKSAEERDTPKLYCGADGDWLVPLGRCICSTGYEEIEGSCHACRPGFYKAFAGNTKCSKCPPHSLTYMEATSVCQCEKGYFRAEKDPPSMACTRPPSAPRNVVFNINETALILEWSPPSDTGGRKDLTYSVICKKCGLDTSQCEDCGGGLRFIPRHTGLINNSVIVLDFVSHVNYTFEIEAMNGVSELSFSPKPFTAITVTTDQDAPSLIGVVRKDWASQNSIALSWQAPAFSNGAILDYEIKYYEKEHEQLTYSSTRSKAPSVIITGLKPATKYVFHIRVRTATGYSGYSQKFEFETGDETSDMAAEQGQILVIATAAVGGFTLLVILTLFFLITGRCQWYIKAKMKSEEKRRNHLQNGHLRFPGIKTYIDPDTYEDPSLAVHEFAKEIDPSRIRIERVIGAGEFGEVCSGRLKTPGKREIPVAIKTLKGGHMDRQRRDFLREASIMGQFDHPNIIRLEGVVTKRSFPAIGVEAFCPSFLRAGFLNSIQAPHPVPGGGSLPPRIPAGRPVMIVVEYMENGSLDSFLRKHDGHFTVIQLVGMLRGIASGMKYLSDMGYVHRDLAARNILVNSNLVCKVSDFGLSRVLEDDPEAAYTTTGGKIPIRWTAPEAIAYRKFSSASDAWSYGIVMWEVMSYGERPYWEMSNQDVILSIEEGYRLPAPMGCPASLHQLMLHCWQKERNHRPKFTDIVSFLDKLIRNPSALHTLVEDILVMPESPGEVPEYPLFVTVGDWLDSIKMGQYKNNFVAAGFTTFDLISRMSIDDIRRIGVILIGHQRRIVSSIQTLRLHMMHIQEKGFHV

GST-Azu 36-89 (from UniProt P08515 1-218)
Req in RU [1]: 57 RU

GST-Azu 88-113 (from UniProt P08515 1-218)
level at which the inhibition levels off [2]: 40 to 50% | reduction of total protein binding to the surface [3]: < 60% | decrease in phosphotyrosine level on cotreatment with ephrinB2 (lane 11 against lane 8) [4]: 21% | decrease in phosphotyrosine level on cotreatment with ephrinB2 (lane 12 against lane 9) [4]: 42% | decrease in phosphotyrosine level on cotreatment with ephrinB2 (lane 13 against lane 10) [4]: 45%

azurin from Pseudomonas aeruginosa (from UniProt P00282 21-148)
level at which the inhibition levels off [2]: 40 to 50% | Req (saturating resonance) [5]: 1250 RU | Req (saturating resonance) [6]: 1200 RU | Req in RU [1]: 427 RU | Kd [7]: 6 nM | lower level of tyrosine phosphorylation with azurin plus ephrinB2 than with ephrinB2 alone [4]: 30 to 40% | reduction of total protein binding to the surface [8]: < 60%

ephrinB2-Fc (Fc fusion)
Req in RU [1]: 159 RU | Kd [9]: 30 nM | Kd [7]: 30 nM

glutathione S-transferase (GST) (from UniProt P08515 1-218) (enzyme)
Req in RU [1]: 14 RU | Kd [9]: > 160 nM
